We go through eight molecules from patent publication US8399201B2, “Polypeptide complex of TRPM8 and calmodulin and its uses thereof” (Janssen Pharmaceutica N.V., priority 2005, dated 2013).

The target in this assay is T1, calmodulin (Rattus norvegicus, UniProt P0DP29).
T1 construct: made in house; host or cells: Escherichia coli BL21 (pGEX-4T-1 based plasmid)
Put plainly: Pull-down of 35S-methionine-labelled TRPM8 fragments on GST-CaM agarose-GSH beads, SDS/PAGE and autoradiography. In kind it is binding. The arrangement: key to Binding (binding activity to calmodulin): (+) binding was detected; (−) no binding was detected. As to conditions: for binding to CaM (result in words): TRPM8 fragments, FIG. 1 and FIG. 2; for Binding (binding activity to calmodulin): rat TRPM8 constructs, binding buffer with 2 mM CaCl2, 30 min room temperature. The method, then:
^35S-methionine labelled TRPM8 fragments were synthesized using TnT® T7 Quick Coupled Transcription/Translation System (Promega) following the vendor recommended protocol. Briefly, 10 μl of 0.1 μg/μl pAGA3 based TRPM8 construct (listed in Table 1) was added to 90 μl of TNT Quick Master Mix with 2 μl of [^35S]-methionine (1000 Ci/mmmol at 10 mCi/ml). The reaction mixture was incubated at 30° C. for 90 min. Aliquots of the incubation mixtures were used directly either for analysis by SDS/PAGE to confirm synthesis of proteins of the desired size or for the ability to bind to GST or GST-CaM.
The GST-CaM fusion plasmid was based on pGEX-4T-1 (Amersham Pharmacia). The CaM was fused to the C-terminus of GST. After transformation into Escherichia coli BL21, a single colony was picked and grown in brow medium to OD of 1.0 at 600 nm. The synthesis of the fusion protein was induced with 0.2 mM isopropyl β-D-thiogalactoside (IPTG). After growing 2-3 hours in the presence of IPTG at 27° C., the cells were collected by centrifugation, resuspended in NETN lysis buffer (0.5% Nonidet P-40/1 mM EDTA/20 mM Tris-HCl, pH8.0/100 mM NaCl; 1 ml of buffer per 20 ml of culture), and lysed by sonication. The cell lysate was separated from the cell debris by centrifugation at 10,000 g for 10 min at 4° C. GST-CaM in the cell lysate was adsorbed for 30 min at room temperature to agarose-glutathione (GSH) beads (Amersham Pharmacia) (1 vol. of lysates/1 vol of 50% (vol/vol) slurry of Agarose-GSH beads in NETN). The beads were washed with binding buffer (20 mM Tris-HCl, pH7.5/100 mM NaCl/2 mM CaCl2/0.5% Tween20).
Agarose-GSH beads (50% (vol./vol.)) bound with about 1 μg of GST or GST-CaM were incubated with 10 μl of ^35S-labelled TRPM8 fragment for 30 min at room temperature in a final volume of 200 μl of binding buffer. At the end of the incubation, the beads were washed three times with 1.0 ml of binding buffer and resuspended in 20 μl of 2× laemmli's sample loading buffer. Protein(s) bound to the beads, including the GST-CaM fusion protein, and possibly the ^35S-labelled TRPM8 fragment that interact with the GST-CaM fusion protein, were separated by SDS/PAGE followed by autoradiography.

B1: TRPM8-7/pAGA3: Rat TRPM8 fragment, residues V145-S352, 207 aa (protein)
chain: VISVTGGAKNFALKPRMRKIFSRLIYIAQSKGAWILTGGTHYGLMKYIGEVVRDNTISRNSEENIVAIGIAAWGMVSNRDTLIRNCDDEGHFSAQYIMDDFMRDPLYILDNNHTHLLLVDNGCHGHPTVEAKLRNQLEKYISERTSQDSNYGGKIPIVCFAQGGGRETLKAINTSVKSKIPCVVVEGSGQIADVIASLVEVEDVLTSS
B1: the “binding to CaM (result in words)” value was “found to bind CaM” and the “Binding (binding activity to calmodulin)” value is recorded as “+”.

B2: TRPM8-9/pAGA3: Rat TRPM8 fragment, residues A172-S352, 180 aa (protein)
chain: AQSKGAWILTGGTHYGLMKYIGEVVRDNTISRNSEENIVAIGIAAWGMVSNRDTLIRNCDDEGHFSAQYIMDDFMRDPLYILDNNHTHLLLVDNGCHGHPTVEAKLRNQLEKYISERTSQDSNYGGKIPIVCFAQGGGRETLKAINTSVKSKIPCVVVEGSGQIADVIASLVEVEDVLTSS
For B2, the “Binding (binding activity to calmodulin)” value is on record as “−”.

B3: TRPM8-10/pAGA3: Rat TRPM8 fragment, residues D198-S352, 154 aa (protein)
chain: DNTISRNSEENIVAIGIAAWGMVSNRDTLIRNCDDEGHFSAQYIMDDFMRDPLYILDNNHTHLLLVDNGCHGHPTVEAKLRNQLEKYISERTSQDSNYGGKIPIVCFAQGGGRETLKAINTSVKSKIPCVVVEGSGQIADVIASLVEVEDVLTSS
For the molecule B3, the “Binding (binding activity to calmodulin)” value was “−”.

B4: TRPM8-8/pAGA3: Rat TRPM8 fragment, residues M219-S352, 133 aa (protein)
chain: MVSNRDTLIRNCDDEGHFSAQYIMDDFMRDPLYILDNNHTHLLLVDNGCHGHPTVEAKLRNQLEKYISERTSQDSNYGGKIPIVCFAQGGGRETLKAINTSVKSKIPCVVVEGSGQIADVIASLVEVEDVLTSS
Consider B4, for which the “Binding (binding activity to calmodulin)” value was “−”.

B5: TRPM8-4/pAGA3: Rat TRPM8 fragment, residues I609-K1104 (end), 495 aa (protein)
chain: NAAGESEELANEYETRAVELFTECYSSDEDLAEQLLVYSCEAWGGSNCLELAVEATDQHFIAQPGVQNFLSKQWYGEISRDTKNWKIILCLFIIPLVGCGLVSFRKKPIDKHKKLLWYYVAFFTSPFVVFSWNVVFYIAFLLLFAYVLLMDFHSVPHTPELILYALVFVLFCDEVRQWYMNGVNYFTDLWNVMDTLGLFYFIAGIVFRLHSSNKSSLYSGRVIFCLDYIIFTLRLIHIFTVSRNLGPKIIMLQRMLIDVFFFLFLFAVWMVAFGVARQGILRQNEQRWRWIFRSVIYEPYLAMFGQVPSDVDSTTYDFSHCTFSGNESKPLCVELDEYNLPRFPEWITIPLVCIYMLSTNILLVNLLVAMFGYTVGIVQENNDQVWKFQRYFLVQEYCNRLNIPFPFVVFAYFYMVVKKCFKCCCKEKNTESSACCFRNEDNETLAWEGVMKENYLVKINTKANDNAEEMRHRFRQLDTKLNDLKGLLKEIANKIK
Consider B5, for which the “binding to CaM (result in words)” value is given as “not” and the “Binding (binding activity to calmodulin)” value was “−”.

B6: TRPM8-2/pAGA3: Rat TRPM8 fragment, residues M353-T690, 337 aa (protein)
chain: MVKEKLVRFLPRTVSRLPEEEIESWIKWLKEILESPHLLTVIKMEEAGDEVVSSAISYALYKAFSTNEQDKDNWNGQLKLLLEWNQLDLASDEIFTNDRRWESADLQEVMFTALIKDRPKFVRLFLENGLNLQKFLTNEVLTELFSTHFSTLVYRNLQIAKNSYNDALLTFVWKLVANFRRSFWKEDRSSREDLDVELHDASLTTRHPLQALFIWAILQNKKELSKVIWEQTKGCTLAALGASKLLKTLAKVKNDINAAGESEELANEYETRAVELFTECYSSDEDLAEQLLVYSCEAWGGSNCLELAVEATDQHFIAQPGVQNFLSKQWYGEISRDT
B6: the “binding to CaM (result in words)” value was “not” and the “Binding (binding activity to calmodulin)” value is on record as “−”.

B7: TRPM8-6/pAGA3: Rat TRPM8 fragment, residues M63-S352, 289 aa (protein)
chain: AMESICKCGYAQSQHIEGTQINQNEKWNYKKHTKEFPTDAFGDIQFETLGKKGKYLRLSCDTDSETLYELLTQHWHLKTPNLVISVTGGAKNFALKPRMRKIFSRLIYIAQSKGAWILTGGTHYGLMKYIGEVVRDNTISRNSEENIVAIGIAAWGMVSNRDTLIRNCDDEGHFSAQYIMDDFMRDPLYILDNNHTHLLLVDNGCHGHPTVEAKLRNQLEKYISERTSQDSNYGGKIPIVCFAQGGGRETLKAINTSVKSKIPCVVVEGSGQIADVIASLVEVEDVLTSS
For B7, the “binding to CaM (result in words)” value was “found to bind CaM” and the “Binding (binding activity to calmodulin)” value is reported as “+”.

B8: TRPM8-1/pAGA3: Rat TRPM8 fragment, residues M1-K432, 432 aa, in vitro translated from pAGA3 (protein)
chain: MSFEGARLSMRSRRNGTLGSTRTLYSSVSRSTDVSYSESDLVNFIQANFKKRECVFFTRDSKAMESICKCGYAQSQHIEGTQINQNEKWNYKKHTKEFPTDAFGDIQFETLGKKGKYLRLSCDTDSETLYELLTQHWHLKTPNLVISVTGGAKNFALKPRMRKIFSRLIYIAQSKGAWILTGGTHYGLMKYIGEVVRDNTISRNSEENIVAIGIAAWGMVSNRDTLIRNCDDEGHFSAQYIMDDFMRDPLYILDNNHTHLLLVDNGCHGHPTVEAKLRNQLEKYISERTSQDSNYGGKIPIVCFAQGGGRETLKAINTSVKSKIPCVVVEGSGQIADVIASLVEVEDVLTSSMVKEKLVRFLPRTVSRLPEEEIESWIKWLKEILESPHLLTVIKMEEAGDEVVSSAISYALYKAFSTNEQDKDNWNGQLKL
As for B8, the “binding to CaM (result in words)” value is listed as “found to bind to CaM” and the “Binding (binding activity to calmodulin)” value is given as “+”.
